The values that follow come from paper PMC10912698.

In test [1] the target is TssZ^R5A/R9A (non-c-di-GMP-binding mutant) as used in the co-IP (Pseudomonas aeruginosa PAO1). Nature of the test: co-IP; PAO1 lysate co-expressing TssZ-HA (or TssZ^R5A/R9A) and V5-HinK; Anti-HA Affinity Gel, 2 h at 4 °C, 50 mM Tris-HCl pH 8.0, 150 mM NaCl, 0.05% TWEEN-20; blots with anti-V5 and anti-HA; also in strains overexpressing PA2133 (low c-di-GMP) or WspR (high c-di-GMP) and with 0-6.4 μM exogenous c-di-GMP.

Test [2] addresses TssZ-HA (TssZ fused with a HA tag at its carboxyl-terminal) (Pseudomonas aeruginosa PAO1). Described as above.

“V5-HinK (HinK fused with V5 tag at its amino-terminal) (natural protein)” registered a fold change of co-immunoprecipitated V5-HinK against wild-type TssZ in test [1] of 3.3 fold. For the same substance, in test [2], the fold change of co-immunoprecipitated V5-HinK, low c-di-GMP lysate (PA2133 overexpressing strain) against the PAO1 control strain came out at 2.2 fold.
